Assay results as given in PMC12099206.

Legend:
[1] = biological target: CmFDL1 expressed in chrysanthemum protoplasts (Chrysanthemum morifolium)
[2] = biological target: CmFTL3 expressed in chrysanthemum protoplasts (Chrysanthemum morifolium)

decrease in Luc activity of CmCDM111Lpro:Luc in chrysanthemum protoplasts (dual-luciferase), CmTCP7, CmFTL3 and CmFDL1 co-transfected against CmFTL3 and CmFDL1 [1]: 80%
decrease in Luc activity of CmCDM111Lpro:Luc in chrysanthemum protoplasts (dual-luciferase), CmTCP7, CmFTL3 and CmFDL1 co-transfected against CmFTL3 and CmFDL1 [2]: 80%
Substance: CmTCP7 expressed in chrysanthemum protoplasts (natural protein)
